Holding throughout (assay): SEC
A general note: SEC sorts molecules by how far they enter the pores of the column.

Experiment [1] concerns the target Rv2531c (apo) (Mycobacterium tuberculosis).
Experiment [2] shares this target. The source holds these as a separate data set.
Experiment [3] concerns the target PLP-bound Rv2531c (Mycobacterium tuberculosis).

Read-outs that look alike come from different tables or passages of the source.

Consider two substances from article PMC12329521.

What is called stoichiometry N is a count of units in the complex or per binding partner.

In the case of Rv2531c (apo) (enzyme), the stoichiometry N in experiment [1] and in experiment [2] was 4 each time. PLP-bound Rv2531c (enzyme) registered a stoichiometry N in experiment [3] of 2.
